Results: patent US8013137B2, “Modified enteropeptidase protein” (National University Corporation Hokkaido University, priority 2006, dated 2011)
Where a chain is given by its changes, count along the chain named. Names may count otherwise.

B1: K63R: Medaka EP-1 protease mutant, substitution K63R (protein)
chain: CGQRQVYNSKENNGVPRVVGGVNAEKGAWPWMVSLHWRGRHGCGASLIGRDWLLTAAHCVYGRNTHLQYWSAVLGLHAQSSMNSQEVQIRQVDRIIINKNYNRRTKEADIAMMHLQQPVNFTEWVLPVCLASEDQHFPAGRRCFIAGWGRDAEGGSLPDILQEAEVPLVDQDECQRLLPEYTFTSSMLCAGYPEGGVDSCQGDSGGPLMCLEDARWTLIGVTSFGVGCGRPERPGAYARVSAFTSWIAETRRSSFSDLD
B2: P193E: Medaka EP-1 protease mutant, substitution P193E (protein)
chain: B1 chain with R63K, P193E
B3: T105E: Medaka EP-1 protease mutant, substitution T105E (protein)
chain: B1 chain with R63K, T105E
B4: F144S: Medaka EP-1 protease mutant, substitution F144S (protein)
chain: B1 chain with R63K, F144S
B5: E173K: Medaka EP-1 protease mutant, substitution E173K (protein)
chain: B1 chain with R63K, E173K
B6: F144A: Medaka EP-1 protease mutant, substitution F144A (protein)
chain: B1 chain with R63K, F144A
B7: Bovine (Neb): bovine EP protease available from NEB (protein)
chain: IVGGSDSREGAWPWVVALYFDDQQVCGASLVSRDWLVSAAHCVYGRNMEPSKWKAVLGLHMASNLTSPQIETRLIDQIVINPHYNKRRKNNDIAMMHLEMKVNYTDYIQPICLPEENQVFPPGRICSIAGWGALIYQGSTADVLQEADVPLLSNEKCQQQMPEYNITENMVCAGYEAGGVDSCQGDSGGPLMCQENNRWLLAGVTSFGYQCALPNRPGVYARVPRFTEWIQSFLH
B8: Bovine (Nvg): bovine EP protease available from Novagen (protein)
chain: B7 chain
B9: EP-2: recombinant serine protease domain of Medaka enteropeptidase-2 (AB272105) (protein)
chain: MKRRLTNLEVLLTVTTSLFAVCCVCLIVVSCIGLKPEGAAEPVQLIGQMVITAGAAFSEELRNSSSHLFKSLAFDVQQLVSDAFGASELRLLYRSFRVLYFRPGSIAVTFDLEFNQQIDLNEVKQQLGEGLQQIEDGALVIDVDSIQITEKPSSTTPEPTSTTGHITTETMPITGHTTPAATPTAASCPPDHSLCWDRSTCVLTDVLCDGVSDCPDASDENSSRCATTCDGQFVLGGPNGTFRSSETETYRNNSNCRWIIRMDGGLSVQVNFHHFETEEYSDVLKLYEGVGPHKQLAAELSGPSPPGTVLLLNNQVTVEFTSDGVNDLSGFRASYVAVNTSSLSNQEKLSCSFDQGFCFWRQLQDSFDTWIRTNVPTFPPLTGPNFDHTFGNSSGFYIVTSLSPGQWLKSFVINSLPLAPSSHPTCLSFWYHMFGEDVYRLRVLLRPSQPELTEVVLFHKEGNFGDNWNYAQITLNLSTESTVVFEAQKEGGNQNDIALDDISLRSEGCGPAPPEPTNVPLPTTAAPIPPDCGGPFDLWEPNSTFTSPNYPQSYGDGAECLWTLHAEKGQNIQLHFLDFDVEATYDVVEVRDGAGLNSTLLAVLSGSDGPTRDLYSTDNQMTVWFYTDSGGFGRGFRANFTSGVNLGSQAPCTNGQFQCQTGDCIHGDRQCDGVADCPDGYDEADCVALQVNGSHRLHFLLLRSLLTVCADTWDSELSDFTCQYLGYRSGEESLQSVLPQDAAFAVVTVSSNGTLETQVRETCSSGEVISLNCSNQPCGQRQVYNHGDQSENSKENNGVPRVVGGVNAEKGAWPWMVSLHWRGRHGCGASLIGRDWLLTAAHCVYGKNTHLQYWSAVLGLHAQSSMNSQEVQIRQVDRIIINKNYNRRTKEADIAMMHLQQPVNFTEWVLPVCLASEGQHFPAGRRCFIAGWGRDAEGGSLPDILQEAEVPLVDQDECQRLLPEYTFTSSMLCAGYPEGGVDSCQGDSGGPLMCLEDARWTLIGVTSFGVGCGRPERPGAYARVSAFASWIAETRRSSFSDLD
modifications: Oryzias latipes

The molecules below were run on GD4K-βNA and the three MCA-containing substrates (assay: Specific activities of wild-type and mutant EP protease using synthetic peptide substrates (FIG. 3A)). Details: not given.
Type: biochemical
Procedure: (A) The specific activities of wild-type (EP-1) and mutant EP protease were determined using synthetic peptide substrates. (B) High-molecular-weight (HMW) kininogen (5 μg) was incubated with active EP proteases (100 ng) at 37° C. for 2 h and analyzed by SDS-PAGE. (C) Fibrinogen (10 μg) was incubated with active EP proteases (100 ng) at 37° C. for 12 h and analyzed by SDS-PAGE.
(§1) EP activity was routinely determined using the specific substrate Gly-Asp-Asp-Asp-Asp-Lys-β-naphthylamide (GD4K-βNA) (SEQ ID NO: 6) (Sigma) according to the method of Mikhailova and Rumsh (Mikhailova et al., FEBS Lett., 442:226-230 (1999)). Enzyme activity for various 4-methylcoumaryl-7-amide (MCA)-containing peptide substrates was determined by the method of Barrett (Barrett et al., J., Biochem. J., 187:909-912 (1980)). For kinetic studies, initial velocities, extrapolated from the plot of product versus time, were transformed into double-reciprocal plots (Lineweaver et al., J. Am. Chem. Soc., 56:658-663 (1934)). The maximum velocities (Vmax) and Km and kcat values were obtained from the intercepts of these plots. For all experiments, the results of at least three separate determinations are shown.

Molecule | enzyme activity for synthetic peptide substrates compared with the wild-type enzyme
B1 | reduced enzyme activity for synthetic peptide substrates
B2 | reduced enzyme activity for synthetic peptide substrates
B3 | reduced enzyme activity for synthetic peptide substrates
B4 | reduced enzyme activity for synthetic peptide substrates
B5 | reduced enzyme activity for synthetic peptide substrates
B6 | at an elevated rate when compared with the wild-type enzyme

Each molecule was assayed on Pro-Phe-Arg-MCA (assay: Activity assay of EP proteases and EP-treated hK8 samples with Pro-Phe-Arg-MCA (FIG. 4B middle)). Details: not given.
Type: biochemical
Procedure: (A) A recombinant fusion protein of Medaka gelatinase A (5 μg) was separately incubated with active EP proteases (100 ng) at 37° C. for 1 h, and analyzed by SDS-PAGE. (B) A recombinant fusion protein of human kallikrein 8 (hK8) (5 μg) was incubated with active EP proteases (100 ng) at 37° C. for 2 h. After incubation, the samples were analyzed by SDS-PAGE (upper panel), or assayed for activity with Pro-Phe-Arg-MCA (middle panel), or Boc-Glu(OBzl)-Ala-Arg-MCA (lower panel). […] The samples were then analyzed by SDS-PAGE/Western blotting using anti-human tPA antibody (upper panel) or anti-His probe antibody (lower panel). The position of sctPA (58- and 61-kDa) detected with the antibodies is shown.
as §1
Next, a 35.5-kDa protein of human kallikrein 8 (hK8) in the same E. coli expression system was synthesized. Digestion with Medaka wild-type and mutant EP proteases generated 31.5-kDa active hK8 by cleaving the D4K sequence (SEQ ID NO: 1) (FIG. 4B, Top). […] The EP protease-treated samples were directly assayed for hK8 activity using Pro-Phe-Arg-MCA, a good synthetic peptide substrate of hK8 (Rajapakse et al., FEBS Lett., 579:6879-6884 (2005)). […] The substrate Boc-Glu(OBzl)-Ala-Arg-MCA, which is slightly cleaved by active hK8, was rapidly hydrolyzed with the samples treated with mammalian, but not Medaka, EP proteases (FIG. 4B, Bottom).

Molecule | enzyme activity of the EP protease itself with Pro-Phe-Arg-MCA | Pro-Phe-Arg-MCA-hydrolyzing activity of hK8 fusion protein samples treated with EP protease
B1 | none of the Medaka EP proteases (wild-type EP-1, K63R, E173A, or E193A) showed any significant enzyme activity | –
B2 | none of the Medaka EP proteases (wild-type EP-1, K63R, E173A, or E193A) showed any significant enzyme activity | –
B7 | considerable enzyme activities were detected | –
B8 | – | very low activity

What follows are molecules tested on GD4K-βNA (assay: EP activity and kinetic study with specific substrate GD4K-βNA). Details: serine protease domain; FIG. 8B.
Type: biochemical
Procedure: (A) Active recombinant EP proteases were assayed using a GD4K-βNA (SEQ ID NO: 6) substrate as a substrate. Bovine (Nvg), bovine EP protease available from Novagen; Bovine (Neb), bovine EP protease available from NEB. (B) Active recombinant EP proteases were assayed using various synthetic peptide substrates. (C) Active EP proteases were analyzed by gelatin zymography. (D) Fibronectin (4 μg) was incubated with active EPs (100 ng) at 37° C. for 12 h. (E) Laminin ((10 μg) was incubated with active recombinant EPs (100 ng) at 37° C. for 12 h. (F) Two μg of the control protein containing the D4K site (SEQ ID NO: 1) was incubated with active recombinant EPs (100 ng) at 37° C. for 1 h.
(A) The purity of purified recombinant Medaka EP-1 and EP-2 protease was assessed by SDS-PAGE. Lane 1, Medaka EP fusion protein; lane 2, Medaka EP protease treated with immobilized trypsin; lane 3, Medaka EP protease purified using a resource Q column. (B) The enzyme activities of EP proteases were determined at various pHs using GD4K-βNA (SEQ ID NO: 6) as a substrate. (C) Recombinant Medaka trypsinogen was incubated at 37° C. with EPs for 15, 30 and 45 min. After incubation, samples were analyzed by SDS-PAGE and visualized by CBB staining (upper panel). The relative amount of the active form of Medaka trypsin at each time point were calculated based on the results shown in the upper panel (lower panel). The results are presented as the means (±SD) of three separate experiments.
as §1

Molecule | pH of maximal activity for GD4K-βNA
B9 | 8

Same assay, conditions: substrate GD4K-βna

Molecule | Km [µM] | kcat [s⁻¹]
B1 | 200 | 3.5
B2 | 400 | 4.83
B3 | 400 | 4.33
B7 | 500 | 25
B8 | 800 | 12.8

Each molecule was assayed on recombinant Medaka trypsinogen (assay: Activation of recombinant Medaka trypsinogen, SDS-PAGE). Details: 37° C., 15, 30 and 45 min.
Type: biochemical

Molecule | conversion of recombinant Medaka trypsinogen to active trypsin
B1 | converted to trypsin as fast as the wild type enzyme
